Reference: patent US10836815B2, “Generation and comparative kinetic analysis of new glycosynthase mutants from Streptococcus pyogenes endoglycosidases for antibody glycoengineering” (UNIVERSITY OF MARYLAND, COLLEGE PARK, priority 2017, dated 2020)

Columns and labels:
Format in all cases: biochemical
rituximab = experiment: Hydrolysis activity assay of Endo-S and D233 mutants, LC-ESI-MS; details: rituximab 1.0 mg/mL as substrate, enzyme 0.01 mg/mL, PBS pH 7.4, 30° C., 5 min, duplicate
Description: (§1) The hydrolytic activity of the mutants generated was evaluated using rituximab as the substrate, and the transglycosylation activity was evaluated using the sugar oxazoline and the deglycosylated rituximab as the donor and acceptor substrates, respectively (Scheme 1).
(§2) The LC-MS characterization of different antibody glycoforms was conducted on an Exactive Plus Orbitrap instrument (Thermo Scientific). The intact antibody sample was analyzed with a Waters XBridge™ BEH300 C4 column (3.5 μm, 2.1×50 mm). The program includes a 9 min linear gradient of 5-90% MeCN containing 0.1% formic acid at a flow rate of 0.4 mL/min. The original mass data were processed through deconvolution and integration through MagTran Software (Amgen).
(§3) Peptide-N-Glycosidase F (PNGase F) treated rituximab was used as the internal standard due to its similarities to the deglycosylated and transferred product in terms of their molecular structures and ionization efficiencies. After PNGase F treatment, a mutation will be introduced into the amino acid sequence of rituximab so the product antibody will not interfere with the reaction via re-glycosylation^35. A standard product S2G2F-rituximab was synthesized following the previously reported procedure^29. […] Serial dilutions containing a gradient of S2G2F-rituximab (0, 0.25, 0.5, 0.75, 1.0, 1.25 and 1.5 μM) were mixed with a stock solution containing 0.67 μM internal standard. These mixed sample solutions were quantified by selected ion monitoring (SIM) to calculate the single-point normalization factor^31. The factor could then be used to calculate the relative amount of the final product N-glycoform for each reaction in the following experiments.
(§4) The hydrolytic activity of each Endo-S mutants and the wild-type (0.01 mg/mL) was assayed in PBS (pH 7.4, 10 μl) at 30° C. with synthetic biantennary sialo-complex-type rituximab (1.0 mg/mL, 6.9 μM) as the starting material. Each reaction was terminated at 5 min and an aliquot was taken from the reaction mixture and dissolved in 0.1% formic acid. The relative quantity of the hydrolysis product was calculated through deconvolution and integration of the selected MS peaks. The experimental details of product quantification using LC-MS are illustrated below. The transglycosylation activity of Endo-S was measured in a similar fashion: deglycosylated Rituximab (10.0 mg/mL, 69 μM) was incubated with SCT-Oxa (1.38 mM, 20 eq) under catalysis of Endo-S enzymes (0.01 mg/mL) under the same condition as hydrolysis. The transglycosylation product SCT-Rituximab was analyzed as mentioned above. Both functional assays were repeated twice for each mutant and the wild-type, and the average activity was recorded

deglycosylated rituximab [1] = experiment: Transglycosylation activity assay of Endo-S and D233 mutants, LC-ESI-MS
Description: as §1, §2, §3, §4

[2] = Kinetic measurements (KM, Vmax) of Endo-S/Endo-S2 mutants for SCT-Oxa; details: for Km / kcat: Endo-S2 mutants, donor substrate SCT-Oxa, PBS pH 7.4, 30° C.
Description: Using a sialylated glycan oxazoline (SCT-Oxa) as the donor and the deglycosylated rituximab as the acceptor substrate, we measured the kinetic parameters of the enzyme catalyzed glycosylation were measured. A mass spectrometry-based approach with an internal standard was used to estimate the product formation.^31-33.
as §3
Measurements of KM and Vmax for SCT-oxa. Serial dilutions with a total volume of 10 μL were prepared with a gradient of SCT-oxa concentrations and a constant deglycosylated antibody concentration mixed in PBS, pH 7.4. Each reaction was initiated by adding 1μμL, of Endo-S/S2 mutants with a concentration of 0.1 mg/M1 and the reaction was conducted at 30° C. The concentrations of SCT-oxa were within a range from 6.25 μM to 400 μM. For each reaction, three aliquots were taken at t=1, 2 and 3 min and immediately quenched in 100 μL 0.1% formic acid. The quenched reaction samples were then characterized by ESI-MS, and the concentration of product in each mixture was calculated using the normalization factor, as shown above. […] The KM and Vmax were measured by fitting the initial velocity against the SCT-oxa concentration using the GraphPad Prism7 program. The experiments were conducts in triplicate to determine the error in these measurements.

deglycosylated rituximab [3] = experiment: Kinetic measurements (KM, Vmax) of Endo-S/Endo-S2 mutants for deglycosylated rituximab
Source text: as §3
Measurements of KM and Vmax for SCT-oxa. Serial dilutions with a total volume of 10 μL were prepared with a gradient of SCT-oxa concentrations and a constant deglycosylated antibody concentration mixed in PBS, pH 7.4. Each reaction was initiated by adding 1μμL, of Endo-S/S2 mutants with a concentration of 0.1 mg/M1 and the reaction was conducted at 30° C. The concentrations of SCT-oxa were within a range from 6.25 μM to 400 μM. For each reaction, three aliquots were taken at t=1, 2 and 3 min and immediately quenched in 100 μL 0.1% formic acid. The quenched reaction samples were then characterized by ESI-MS, and the concentration of product in each mixture was calculated using the normalization factor, as shown above. A linear progression curve was confirmed for each reaction by sampling at multiple early time points and plotting them in the same graph, which emphasized that the V0 measured indeed represents the initial rate of each reaction. The KM and Vmax were measured by fitting the initial velocity against the SCT-oxa concentration using the GraphPad Prism7 program. The experiments were conducts in triplicate to determine the error in these measurements.
The KM and Vmax values of both Endo-S and Endo-S2 mutants for the deglycosylated antibody substrate were measured in a similar fashion as to those for SCT-Oxa. In the serial reactions, the concentrations of antibody range from 0.313 μM to 20 μM, whereas the SCT-Oxa concentration was fixed at 400 μM. A similar control reaction was also performed for each concentration to monitor the non-enzymatic side reactions.

[4] = Endo-S2, glycan oxazoline substrate
[5] = Endo-S2 mutants, acceptor substrate deglycosylated rituximab, SCT-Oxa fixed at 400 μM

Row | Molecule | Specific Hydrolysis Activity (rituximab) | Transglycosylation Activity (deglycosylated rituximab [1]; deglycosylated rituximab 10.0 mg/mL, SCT-Oxa 1.38 mM (20 eq), enzyme 0.01 mg/mL, PBS pH 7.4, 30° C., duplicate) | Transglycosylation/Hydrolysis Ratio T/H (deglycosylated rituximab [1]; ratio of transglycosylation to hydrolysis activity, Table 1) | decrease in substrate affinity (KM) versus D184A [2, 4] | increase in catalytic turnover numbers (kcat) over D184A [2, 4] | increase in kcat/KM over D184A ([2]; Endo-S2, sugar oxazoline substrate) | Km [2] | kcat [2] | catalytic turnover number compared with Endo-S D233M (in words) ([2]; for both the sugar oxazoline and the antibody substrates) | substrate affinity for the deglycosylated antibody (in words) (deglycosylated rituximab [3]; Asp-to-Met versus Asp-to-Ala mutant) | Km (deglycosylated rituximab [3]; [5]) | kcat (deglycosylated rituximab [3]; [5]) | KM value relative to Endo-S2 D184M (deglycosylated rituximab [3]; deglycosylated rituximab)
1 | Endo-S WT: wild-type Endo-S, endo-β-N-acetylglucosaminidase of Streptococcus pyogenes (SEQ ID NO: 1) (protein, Streptococcus pyogenes) MDKHLLVKRTLGCVCAATLMGAALATHHDSLNTVKAEEKTVQVQKGLPSIDSLHYLSENSKKEFKEELSKAGQESQKVKEILAKAQQADKQAQELAKMKIPEKIPMKPLHGPLYGGYFRTWHDKTSDPTEKDKVNSMGELPKEVDLAFIFHDWTKDYSLFWKELATKHVPKLNKQGTRVIRTIPWRFLAGGDNSGIAEDTSKYPNTPEGNKALAKAIVDEYVYKYNLDGLDVDVEHDSIPKVDKKEDTAGVERSIQVFEEIGKLIGPKGVDKSRLFIMDSTYMADKNPLIERGAPYINLLLVQVYGSQGEKGGWEPVSNRPEKTMEERWQGYSKYIRPEQYMIGFSFYEENAQEGNLWYDINSRKDEDKANGINTDITGTRAERYARWQPKTGGVKGGIFSYAIDRDGVAHQPKKYAKQKEFKDATDNIFHSDYSVSKALKTVMLKDKSYDLIDEKDFPDKALREAVMAQVGTRKGDLERFNGTLRLDNPAIQSLEGLNKFKKLAQLDLIGLSRITKLDRSVLPANMKPGKDTLETVLETYKKDNKEEPATIPPVSLKVSGLTGLKELDLSGFDRETLAGLDAATLTSLEKVDISGNKLDLAPGTENRQIFDTMLSTISNHVGSNEQTVKFDKQKPTGHYPDTYGKTSLRLPVANEKVDLQSQLLFGTVTNQGTLINSEADYKAYQNHKIAGRSFVDSNYHYNNFKVSYENYTVKVTDSTLGTTTDKTLATDKEETYKVDFFSPADKTKAVHTAKVIVGDEKTMMVNLAEGATVIGGSADPVNARKVFDGQLGSETDNISLGWDSKQSIIFKLKEDGLIKHWRFFNDSARNPETTNKPIQEASLQIFNIKDYNLDNLLENPNKFDDEKYWITVDTYSAQGERATAFSNTLNNITSKYWRVVFDTKGDRYSSPVVPELQILGYPLPNADTIMKTVTTAKELSQQKDKFSQKMLDELKIKEMALETSLNSKIFDVTAINANAGVLKDCIEKRQLLKK | 2.77 100*(μmol/min/mg) | 25.89 100*(μmol/min/mg) | 9.35 | – | – | – | – | – | – | – | – | – | –
2 | Endo-S2 D184M (protein) EEKTVQTGKTDQQVGAKLVQEIREGKRGPLYAGYFRTWHDRASTGIDGKQQHPENTMAEVPKEVDILFVFHDHTASDSPFWSELKDSYVHKLHQQGTALVQTIGVNELNGRTGLSKDYPDTPEGNKALAAAIVKAFVTDRGVDGLDIMIEHEFTNKRTPEEDARALNVFKEIAQLIGKNGSDKSKLLIMDTTLSVENNPIFKGIAEDLDYLLRQYYGSQGGEAEVDTINSDWNQYQNYIDASQFMIGFSFFEESASKGNLWFDVNEYDPNNPEKGKDIEGTRAKKYAEWQPSTGGLKAGIFSYAIDRDGVAHVPSTYKNRTSTNLQRHEVDNISHTDYTVSRKLKTLMTEDKRYDVIDQKDIPDPALREQIIQQVGQYKGDLERYNKTLVLTGDKIQNLKGLEKLSKLQKLELRQLSNVKEITPELLPESMKKDAELVMVGMTGLEKLNLSGLNRQTLDGIDVNSITHLTSFDISHNSLDLSEKSEDRKLLMTLMEQVSNHQKITVKNTAFENQKPKGYYPQTYDTKEGHYDVDNAEHDILTDFVFGTVTKRNTFIGDEEAFAIYKEGAVDGRQYVSKDYTYEAFRKDYKGYKVHLTASNLGETVTSKVTATTDETYLVDVSDGEKVVHHMKLNIGSGAIMMENLAKGAKVIGTSGDFEQAKKIFDGEKSDRFFTWGQTNWIAFDLGEINLAKEWRLFNAETNTEIKTDSSLNVAKGRLQILKDTTIDLEKMDIKNRKEYLSNDENWTDVAQMDDAKAIFNSKLSNVLSRYWRFCVDGGASSYYPQYTELQILGQRLSNDVANTLKD | – | – | – | less than 2 fold | more than 15 fold | more than 10 fold | 229 ± 34.8 µM | 2.7968 ± 0.3417 s⁻¹ | significantly higher catalytic turnover number than Endo-S D233M | significantly higher substrate affinity for the antibody than the Endo-S2 D184A mutant | 32.6 ± 6.71 µM | 0.4973 ± 0.155 s⁻¹ | –
3 | Endo-S2 D184A (protein) EEKTVQTGKTDQQVGAKLVQEIREGKRGPLYAGYFRTWHDRASTGIDGKQQHPENTMAEVPKEVDILFVFHDHTASDSPFWSELKDSYVHKLHQQGTALVQTIGVNELNGRTGLSKDYPDTPEGNKALAAAIVKAFVTDRGVDGLDIAIEHEFTNKRTPEEDARALNVFKEIAQLIGKNGSDKSKLLIMDTTLSVENNPIFKGIAEDLDYLLRQYYGSQGGEAEVDTINSDWNQYQNYIDASQFMIGFSFFEESASKGNLWFDVNEYDPNNPEKGKDIEGTRAKKYAEWQPSTGGLKAGIFSYAIDRDGVAHVPSTYKNRTSTNLQRHEVDNISHTDYTVSRKLKTLMTEDKRYDVIDQKDIPDPALREQIIQQVGQYKGDLERYNKTLVLTGDKIQNLKGLEKLSKLQKLELRQLSNVKEITPELLPESMKKDAELVMVGMTGLEKLNLSGLNRQTLDGIDVNSITHLTSFDISHNSLDLSEKSEDRKLLMTLMEQVSNHQKITVKNTAFENQKPKGYYPQTYDTKEGHYDVDNAEHDILTDFVFGTVTKRNTFIGDEEAFAIYKEGAVDGRQYVSKDYTYEAFRKDYKGYKVHLTASNLGETVTSKVTATTDETYLVDVSDGEKVVHHMKLNIGSGAIMMENLAKGAKVIGTSGDFEQAKKIFDGEKSDRFFTWGQTNWIAFDLGEINLAKEWRLFNAETNTEIKTDSSLNVAKGRLQILKDTTIDLEKMDIKNRKEYLSNDENWTDVAQMDDAKAIFNSKLSNVLSRYWRFCVDGGASSYYPQYTELQILGQRLSNDVANTLKD | – | – | – | – | – | – | 121 ± 17.1 µM | 0.17 ± 0.0395 s⁻¹ | – | – | > 680 µM | – | more than 20 times
